Holding throughout (test): fluorescence anisotropy
In one series the target is T1, A3F (UniProt Q8IUX4).
T1 sequence: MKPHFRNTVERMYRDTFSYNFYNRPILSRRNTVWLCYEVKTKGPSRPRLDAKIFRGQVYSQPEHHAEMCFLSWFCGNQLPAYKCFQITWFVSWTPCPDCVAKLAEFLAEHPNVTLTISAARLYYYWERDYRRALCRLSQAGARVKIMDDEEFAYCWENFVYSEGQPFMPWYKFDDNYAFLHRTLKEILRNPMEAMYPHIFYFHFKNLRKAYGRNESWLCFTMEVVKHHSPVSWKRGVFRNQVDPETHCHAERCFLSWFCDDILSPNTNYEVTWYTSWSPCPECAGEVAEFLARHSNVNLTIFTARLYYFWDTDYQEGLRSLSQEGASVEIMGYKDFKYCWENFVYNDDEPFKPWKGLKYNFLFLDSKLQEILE
The following applies: apparent Kd; 10 mM Mg2+; RT buffer: 50 mM Tris pH 7.4, 40 mM KCl, 10 mM MgCl2, 1 mM DTT; 10 nM F-labeled DNA; 21 C.

Another series addresses T2, A3F CTD (UniProt Q8IUX4).
T2 sequence: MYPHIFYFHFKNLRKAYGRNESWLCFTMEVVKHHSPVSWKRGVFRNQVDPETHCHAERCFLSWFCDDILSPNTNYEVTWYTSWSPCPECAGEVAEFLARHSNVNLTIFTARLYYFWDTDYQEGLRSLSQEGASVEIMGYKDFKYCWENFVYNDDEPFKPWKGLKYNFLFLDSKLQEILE
The following applies: RT buffer: 50 mM Tris pH 7.4, 40 mM KCl, 10 mM MgCl2, 1 mM DTT; 10 nM F-labeled DNA; 21 C.

The target in another series is T3, A3F NGM P191G (UniProt Q8IUX4).
T3 sequence: T1 sequence with P191G
The following applies: RT buffer: 50 mM Tris pH 7.4, 40 mM KCl, 10 mM MgCl2, 1 mM DTT; 10 nM F-labeled DNA; 21 C.

A further series concerns the target T4, GST-A3F (UniProt Q8IUX4).
T4 sequence: T1 sequence
Particulars: RT buffer: 50 mM Tris pH 7.4, 40 mM KCl, 10 mM MgCl2, 1 mM DTT; 10 nM F-labeled DNA; 21 C.

Positions count from the first letter of the chain named.

Consider “GAATATAGTTTTTAGTTCAAAGTAAGTGAAGATAATTTAGAGAGTTGTAATGTGATATATGTGTATGAAAGATATAAGATTCAAAGAGTAAAGTTGTTAATGTGTGTAGATATGTTAA [A3F - 63 (TTC) (118 nt)]”, for which the Kd with A3F is 20 nM; in the series with A3F CTD, 288 nM; with A3F NGM P191G, 119 nM; with GST-A3F, 46 nM.

Source of the values: publication PMC3961392.
